# Data as given in publication PMC5290461.
# Molecular target: GST-β1A-integrin tails (UniProt P05556)
# Assay: pull-down; different concentrations of purified His-tagged talin head incubated with glutathione agarose beads preloaded with GST-β1A-integrin tails or GST; lysis buffer A (50 mM Tris-HCl pH 7.4, 1% NP-40, 150 mM NaCl, 1 mM EDTA, protease inhibitors) with 0.5 mg/ml bovine gelatin; bound protein on SDS-PAGE, Coomassie blue, quantified against standards on the same gel; Kd fitted with SigmaPlot
# Chain of UniProt P05556 (P05556 21-798): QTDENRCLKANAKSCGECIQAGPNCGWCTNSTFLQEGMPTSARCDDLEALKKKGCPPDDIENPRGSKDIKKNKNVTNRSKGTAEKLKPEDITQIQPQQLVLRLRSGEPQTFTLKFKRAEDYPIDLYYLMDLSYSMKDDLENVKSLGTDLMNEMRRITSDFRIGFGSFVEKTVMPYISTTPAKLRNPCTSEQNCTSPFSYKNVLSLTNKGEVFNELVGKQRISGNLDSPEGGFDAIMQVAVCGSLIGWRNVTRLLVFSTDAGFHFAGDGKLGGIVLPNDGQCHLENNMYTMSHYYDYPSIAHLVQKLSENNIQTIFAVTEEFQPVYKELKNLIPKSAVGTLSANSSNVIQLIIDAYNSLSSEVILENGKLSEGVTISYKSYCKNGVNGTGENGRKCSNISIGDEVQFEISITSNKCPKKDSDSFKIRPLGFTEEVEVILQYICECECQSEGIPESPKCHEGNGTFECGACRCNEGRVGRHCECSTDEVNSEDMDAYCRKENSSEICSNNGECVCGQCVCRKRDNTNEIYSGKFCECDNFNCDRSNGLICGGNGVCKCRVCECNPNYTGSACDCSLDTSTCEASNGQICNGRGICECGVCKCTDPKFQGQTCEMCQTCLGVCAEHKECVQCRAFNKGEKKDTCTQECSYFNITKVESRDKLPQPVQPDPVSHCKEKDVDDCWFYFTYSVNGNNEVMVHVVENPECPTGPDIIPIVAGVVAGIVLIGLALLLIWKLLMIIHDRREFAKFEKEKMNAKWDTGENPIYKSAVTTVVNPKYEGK
row,Substance,Kd [nM]
1,His-tagged talin1(1-446) WT (from UniProt Q9Y490 1-446) (domain or fragment),880
2,His-tagged talin2(1-449) WT (from UniProt Q9Y4G6 1-449) (domain or fragment),350
